US20210292392A1 (TSB THERAPEUTICS BEIJING, published 2021)

Columns and labels:
[1] = target: full length spike (S) protein of SARS-CoV-2 on pseudovirus (SARS-CoV-2, UniProt P0DTC2 14-1273); assay: cell-based or functional assay
[2] = target: spike (S) protein of live SARS-CoV-2 (SARS-CoV-2, UniProt P0DTC2 14-1273); assay: cell-based or functional assay
[3] = target: spike protein of live SARS-CoV-2 (SARS-CoV-2, UniProt P0DTC2 14-1273); assay: cell-based or functional assay
[4] = target: T1, full length spike (S) protein of SARS-CoV-2 (SARS-CoV-2, UniProt P0DTC2 14-1273); assay: cell-based or functional assay
[5] = target: recombinant RBD of the spike protein of SARS-CoV-2 (residues Arg319-Phe541) (SARS-CoV-2, UniProt P0DTC2 319-541); assay: SPR, RBD on CM5 chip
[6] = target: T1, full length spike (S) protein of …; assay: cell-based or functional assay; remark: listed apart in the source
[7] = target: spike protein on live SARS-CoV-2 (SARS-CoV-2, UniProt P0DTC2 14-1273); assay: cell-based or functional assay

B1: P2C-1C10 (antibody, V domains shown)
VH: QVQLVQSGAEVKKPGSSVKVSCKASGGTFSSYAIIWVRQAPGQGLEWMGGIIPIFGTANYAQKFQGRVTITADESTSTAYMELSSLRSEDTAVYYCARVVTGYYFDYWGQGTLVTVSS
VL: EIVLTQSPATLSLSPGERATLSCRASQSVSSYLAWYQQKPGQAPRLLIYDASNRATGIPARFSGSGSGTDFTLTISSLEPEDFAVYYCQQRSNWPSFGQGTKLEIKR
Pseudovirus IC50 [1]: 2.62 mg/L
Pseudovirus IC80 [1]: 4.64 mg/L
Live virus IC50 [2]: 11.1 mg/L
Live virus IC80 [2]: > 50 mg/L

B2: P5A-1D1 (antibody, V domains shown)
VH: EVQLVESGGGLIQPGGSLRLSCAASGLTVSSNYMSWVRQAPGKGLEWVSVIYSGGSTYYADSVKGRFTISRDNSKNTLYLQMNSLRAEDTAVYYCARDLYYYGMDVWGQGTTVTVST
VL: DIQLTQSPSFLSASVGDRVTITCRASQGISSYLAWYQQKPGKAPKLLIYAASTLQSGVPSRFSGSGSGTDFTLTISSLQPEDFATYYCQQLNSYPTFGQGTRLEIKR
Live virus IC50 [3]: 0.0189 mg/L

B3: P1A-1C10 (antibody, V domains shown)
VH: QVQLVQSGAEVKNPGSSVKVSCKAGGGTSSFYDINWVRQAPGQGLEWIGKIIPRLDIADYAQKSQGRVTITADKSTSTVYLELSSLKSDDTAVYFCARGRPGSEWAYGPFDLWGQGTLVTVSS
VL: DIQMTQSPSTLSASVGDRVTITCRASQSSRAWLAWYQQKPGKAPKLLISKASSLESGVPSRFSGSGYGTEFTLTISSLQPDDSATYYCHQYNSSPFTFGPGTKVQIKR
notes: human IgG1, kappa
IC50, Pesudovirus neutralization [4]: 21.5 mg/L
Kd [5]: 8.48 nM

B4: P5A-2E1 (antibody, human IgG1, lambda, V domains shown)
VH: EVQLVQSGAEVKKPGESLKISCKGSGYSFTSYWIGWVRQMPGKGLEWMGIIYPGDSDTRYSPSFQGQVTISADKSISTAYLQWSSLKASDTAMYYCAQTSVTRNWFDPWGQGTLVTVSS
VL: SYVLTQPPSVSVAPGKTARITCGGNNIGSKSVHWYQQKPGQAPVLVIYYDSDRPSGIPERFSGSNSGNTATLTISRVEAGDEADYYCQVWDSSSDHVVFGGGTKLTVLG
IC50, pseudovirus neutralization [6]: 6.97 mg/L

B5: P2C-1A3 (antibody, V domains shown)
VH: QVQLVESGGGLVKPGGSLRLSCAASGFTFSDYYMSWIRQAPGKGLEWVSYISSSGSTIYYADSVKGRFTISRDNAKNSLYLQMNSLRAEDTAVYYCARDFSHQQLVPSWGQGTLVTVSS
VL: not shown
IC50, live SARS-CoV-2 focus reduction neutralization test (FRNT) [7]: 0.28 mg/L

B6: P2C-1A3 (antibody, V domains shown)
VH: QVQLVESGGGLVKPGGSLRLSCAASGFTFSDYYMSWIRQAPGKGLEWVSYISSSGSTIYYADSVKGRFTISRDNAKNSLYLQMNSLRAEDTAVYYCARDFSHQQLVPSWGQGTLVTVSS
VL: not shown
Pseudovirus IC50 [1]: 0.62 mg/L
Pseudovirus IC80 [1]: 5.94 mg/L
Live virus IC50 [2]: 0.283 mg/L
Live virus IC80 [2]: 1.46 mg/L
